Data published in PMC5474692.
Like-named read-outs stand apart in the source and are kept apart here.

Key:
Experiment in all cases: fluorescence anisotropy against solution viscosity
[1] = biological target: Rosmarinus
[2] = biological target: Rosmarinus; remark: listed apart in the source
[3] = biological target: Rosmarinus; remark: listed apart in the source
[4] = biological target: amFP486/K68M (UniProt Q9U6Y6)
[5] = biological target: eqFP486

## Rosmarinus
[1]
  stoichiometry N: 2
[2]
  stoichiometry N: 4
[3]
  stoichiometry N: 4

## amFP486/K68M (from UniProt Q9U6Y6 1-229) (natural protein)
[4]
  stoichiometry N: 4

## eqFP486 (natural protein)
[5]
  stoichiometry N: 2
